The results in this text go back to article PMC9645710, “Cryo-EM structures of peripherin-2 and ROM1 suggest multiple roles in photoreceptor membrane morphogenesis” (Science Advances, 2022).

Changes are numbered by the printed parent chain. Names and notes keep the numbering of the source.

Series [1] has as its target T1, ROM1 (human rod outer segment membrane protein 1, N-terminal Strep3-GFP tag) (human, UniProt Q03395).
T1 construct: rod outer segment membrane protein 1 (ROM1), human, full length; codon-optimized cDNA from GeneArt in a pUPE vector; Residues 323 to 351 were not modelled in the structure; also called retinal outer segment protein 1; source: HEK293T, transiently transfected together with PRPH2^C150S, solubilized in DDM/CHS, purified (Strep-Tactin, SEC); not shown: Strep3, N-terminal, kept
Put plainly: cryo-EM structure; PRPH2^C150S-ROM1 purified in 25 mM tris-HCl, 150 mM NaCl, pH 7.5, 0.025% DDM/CHS, incubated with an excess of Nanobody19, ~9 mg/ml; single-particle map at 3.7 A. The note with it: both partners purified.

The target in series [2] is T2, PRPH2^C150S-ROM1 heterodimer (human, UniProt P23942;Q03395, C150S, N-acetylglucosamine on Asn229 (density in the map); possible glycosylation at Asn53).
T2 construct: peripherin-2 (PRPH2), human, full length; as m1; rod outer segment membrane protein 1 (ROM1), human, full length; as m2; Formed and purified before Nanobody19 was added; also called PRPH2^C150S-ROM1 complex; PRPH2-ROM1 heterodimer; source: HEK293T, transiently co-transfected, solubilized in DDM/CHS, purified (Strep-Tactin, SEC); not shown: Strep3, N-terminal, kept; copies: 1 + 1
T2 sequence (Q03395 whole entry, stated change not applied, one chain of several): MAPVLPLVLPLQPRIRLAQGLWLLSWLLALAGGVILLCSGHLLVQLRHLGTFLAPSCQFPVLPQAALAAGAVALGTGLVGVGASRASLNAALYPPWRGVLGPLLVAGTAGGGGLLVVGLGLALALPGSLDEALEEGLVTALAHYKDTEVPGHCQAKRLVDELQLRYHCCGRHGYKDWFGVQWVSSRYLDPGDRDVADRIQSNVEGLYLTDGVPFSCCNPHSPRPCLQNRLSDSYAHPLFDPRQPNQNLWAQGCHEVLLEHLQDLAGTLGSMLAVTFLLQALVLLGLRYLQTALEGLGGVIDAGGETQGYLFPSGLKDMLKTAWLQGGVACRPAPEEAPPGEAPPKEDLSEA
The description is as above. The note with it: both partners purified.

Series [3] addresses T3, ROM1 (human rod outer segment membrane protein 1, N-terminal Strep3-GFP tag) (human, UniProt Q03395 1-351).
T3 construct: rod outer segment membrane protein 1 (ROM1), human, full length; codon-optimized cDNA from GeneArt in a pUPE vector; Residues 323 to 351 were not modelled in the structure; also called retinal outer segment protein 1; source: HEK293T, transiently transfected together with PRPH2^C150S, solubilized in DDM/CHS, purified (Strep-Tactin, SEC); not shown: Strep3, N-terminal, kept
The series is described as above. As to conditions: both partners purified.

For series [4], the target named is T4, ROM1 (human rod outer segment membrane protein 1, wild type, N-terminal Strep3 tag) (human, UniProt Q03395 1-351).
T4 construct: rod outer segment membrane protein 1 (ROM1), human, full length; codon-optimized cDNA from GeneArt in a pUPE vector; source: HEK293T, transiently transfected together with PRPH2, solubilized in DDM/CHS, purified (Strep-Tactin, SEC); not shown: Strep3, N-terminal, kept
T4 sequence (Q03395 whole entry): as the sequence (Q03395 whole entry, stated change not applied, one chain of several) above
Put plainly: cryo-EM structure; wild-type PRPH2-ROM1, one SEC fraction of heterogeneous complexes in 0.025% DDM/CHS, ~3.6 mg/ml; maps of tetramer, hexamer and octamer at ~7-8 A with the heterodimer docked in; the sizes count chains of PRPH2 and ROM1 together. As to conditions: both partners purified.

Series [5] deals with the molecule itself. Put plainly: SEC; PRPH2 and ROM1 (wild type or cysteine mutants) expressed in HEK293T, solubilized in DDM/CHS; Superdex 200 Increase 10/300 GL, 25 mM tris-HCl, 150 mM NaCl, pH 7.5, 0.025% DDM/CHS; no reducing agent. In general terms: Size exclusion chromatography separates by hydrodynamic size, large species first.

A word on the stoichiometry N: it is a count of units in the complex or per binding partner.

B1: Nanobody19 (VHH)
VHH: QVQLQESGGGLVQAGGSLRLSCAASTRTTSRYTVGWFCQAPGKEREFVAAVHWSGGSTWYADSVKGRFTISRDNAKNTVYLQMNSLKQEDTAVYYCAAAEPRRYSYYMRPDEYNYWGQGTQVTVSS
notes: modelled in the deposited structure PDB 7ZW1; also called Nb19; source: E. coli BL21(DE3), purified (Ni-NTA, SEC)
Turning to B1, in series [1], the binding result is on record as “binds”. Moreover, the “stoichiometry N” value in series [2] was 1.

B2: PRPH2^C150S (human peripherin-2 with mutation C150S, N-terminal 6x-His tag) (natural protein, UniProt P23942 1-346, looked up)
chain: MALLKVKFDQKKRVKLAQGLWLMNWFSVLAGIIIFSLGLFLKIELRKRSDVMNNSESHFVPNSLIGMGVLSCVFNSLAGKICYDALDPAKYARWKPWLKPYLAICVLFNIILFLVALCCFLLRGSLENTLGQGLKNGMKYYRDTDTPGRSFMKKTIDMLQIEFKCCGNNGFRDWFEIQWISNRYLDFSSKEVKDRIKSNVDGRYLVDGVPFSCCNPSSPRPCIQYQITNNSAHYSYDHQTEELNLWVRGCRAALLSYYSSLMNSMGVVTLLIWLFEVTITIGLRYLQTSLDGVSNPEESESESQGWLLERSVPETWKAFLESVKKLGKGNQVEAEGADAGQAPEAG
modifications: N-acetylglucosamine on Asn229 (density in the map); possible glycosylation at Asn53
notes: peripherin-2 (PRPH2), human, full length; codon-optimized cDNA from GeneArt in a pUPE vector; Residues 322 to 346 were not modelled in the structure; source: HEK293T, transiently transfected together with ROM1, solubilized in DDM/CHS, purified (Strep-Tactin through ROM1, SEC)
As to B2, the binding result in series [3] was “binds”.

B3: PRPH2 (human peripherin-2, wild type, N-terminal 6x-His tag) (natural protein, UniProt P23942 1-346, looked up)
chain: B2 chain with S150C
notes: peripherin-2 (PRPH2), human, full length; codon-optimized cDNA from GeneArt in a pUPE vector; The tag is told for the oligomer preparation; source: HEK293T, transiently transfected together with ROM1, solubilized in DDM/CHS, purified (Strep-Tactin through ROM1, SEC)
Take B3: in series [4], the binding result is on record as “binds”. Besides, the “stoichiometry N” value in series [5] is 2.
